Laboratory results as given in PMC3664820 (Nucleic Acids Research, 2013).

Biological target: the molecule itself
Experiment: SEC

B1: Lac repressor (first 331 residues, dimeric, without the C-terminal tetramerization domain) (domain or fragment)
chain: MKPVTLYDVAEYAGVSYQTVSRVVNQASHVSAKTREKVEAAMAELNYIPNRVAQQLAGKQSLLIGVATSSLALHAPSQIVAAIKSRADQLGASVVVSMVERSGVEACKAAVHNLLAQRVSGLIINYPLDDQDAIAVEAACTNVPALFLDVSDQTPINSIIFSHEDGTRLGVEHLVALGHQQIALLAGPLSSVSARLRLAGWHKYLTRNQIQPIAEREGDWSAMSGFQQTMQMLNEGIVPTAMLVANDQMALGAMRAITESGLRVGADISVVGYDDTEDSSCYIPPLTTIKQDFRLLGQTSVDRLLQLSQGQAVKGNQLLPVSLVKRKTTLA
B1: binds.
